One series deals with EAF1 (UniProt Q96JC9). The series can be described thus: IP of tagged ELL, EAF1 blot. Particulars: reference: wild type ELL; sites T551,S561,S589.
Series [1] deals with the molecule itself. Put plainly: co-sedimentation; glycerol gradient of purified recombinant His-GFP-ELL.
The target of a further series is T1, GST-ELL (human, UniProt P55199 1-621).
T1 construct: ELL (aka ELL1), human; Cloned in pET-GST
T1 sequence (looked up): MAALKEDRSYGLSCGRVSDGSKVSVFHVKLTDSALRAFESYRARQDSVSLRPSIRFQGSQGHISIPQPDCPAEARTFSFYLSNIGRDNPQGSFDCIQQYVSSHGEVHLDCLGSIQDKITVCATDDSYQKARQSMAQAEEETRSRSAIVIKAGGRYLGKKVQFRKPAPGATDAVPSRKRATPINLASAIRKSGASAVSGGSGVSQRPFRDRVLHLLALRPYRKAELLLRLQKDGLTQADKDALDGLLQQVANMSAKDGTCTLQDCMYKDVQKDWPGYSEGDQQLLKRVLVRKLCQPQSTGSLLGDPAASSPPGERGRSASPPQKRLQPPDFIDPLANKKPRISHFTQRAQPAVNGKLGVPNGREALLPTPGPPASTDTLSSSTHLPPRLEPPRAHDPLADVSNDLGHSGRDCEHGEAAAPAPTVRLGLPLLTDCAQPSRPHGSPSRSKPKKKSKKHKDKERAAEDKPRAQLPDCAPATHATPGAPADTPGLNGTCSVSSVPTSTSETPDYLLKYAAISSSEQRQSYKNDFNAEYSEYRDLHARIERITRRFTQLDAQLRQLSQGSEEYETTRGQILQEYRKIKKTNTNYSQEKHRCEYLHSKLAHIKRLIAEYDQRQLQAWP
The series can be described thus: pull-down; GST or GST-ELL bound to glutathione beads incubated with purified prey in 20 mM Tris-Cl pH 8, 20% glycerol, 2 mM EDTA, 150 mM KCl, BSA 20 ng/μl, 0.1% NP-40, 10–12 h, 4°C; immunoblot; some panels with purified EAF1 added. As to conditions: both partners purified. (In general: Immunoblotting shows a protein as a band on a membrane.)

With “ELL (aka ELL1) (from UniProt P55199) ELL TM (T551A, S561A, S589A)”, the “binding against the reference” value with EAF1 was “weaker”.

B1: His-GFP-ELL (natural protein, human, UniProt P55199 1-621, looked up)
chain: T1 sequence (looked up)
notes: ELL (aka ELL1), human; Cloned in pET-11d; also called GFP-ELL (in vitro); purified recombinant ELL protein; source: E. coli BL21(DE3), purified (Ni-NTA)
As for B1, the binding result (in series [1]; with GST-ELL) was “binds” throughout.

Values taken from publication PMC9638944, “ATM-mediated ELL phosphorylation enhances its self-association through increased EAF1 interaction and inhibits global transcription during genotoxic stress” (Nucleic Acids Research, 2022).
